{
  "source": "patent US20120122115A1",
  "about": "“Bacterial quorum sensing biosensor” (priority 2006, published 2012)",
  "molecules": {"B1": {"name": "M3CLPY: CLPY with LuxP BAI-2 binding site mutations Q77A, S79A, and W82F (protein)", "chain": "MRGSHHHHHHGSACELGTMKGEELFTGVVPILVELDGDVNGHKFSVSGEGEGDATYGKLTLKFICTTGKLPVPWPTLVTTLTWGVQCFSRYPDHMKQHDFFKSAMPEGYVQQRTIFFKDDGNYKTRAEVKFEGDTLVNRIELKGIDFKEDGNILGHKLEYNYISHNVYITADKQKNGIKANFKIRHNIEDGSVQLADHYQQNTPIGDGPVLLPDNHYLSIQSALSKDPNEKRDHMVLKEFVTAAGITHGMDELYTADGVLNGYWGYQEFLDEFPEQRNLTNALSEAVRAQPVPLSKPTQRPIKISVVYPGQAVADYFVRNIASFEKRLYKLNINYQLNQVFTRPNADIKQQSLSLMEALKSKSDYLIFTLDTTRHRKFVEHVLDSTNTKLILQNITTPVREWDKHQPFLYVGFDHAEGSRELATEFGKFFPKHTYYSVLYFSEGYISDVRGDTFIHQVNRDNNFELQSAYYTKATKQSGYDAAKASLAKHPDVDFIYACSTDVALGAVDALAELGREDIMINGWGGGSAELDAIQKGALDITVMRMNDDTGIAMAEAIKWDLEDKPVPTVYSGDFEIVTKADSPERIEALKKRAFRYSDNGGAAAKGEELFTGVVPILVELDGDVNGHKFSVSGEGEGDATYGKLTLYFICTTGKLPVPWPTLVTTLGYGLKCFARYPDHMKQHDFFKSAMPEGYVQERTIFFKDDGNYKTRAEVKFEGDTLVNRIELKGIDFKEDGNILGHKLEYNYNSHNVYIMADKQKNGIKVNFKIRHNIEDGSVQLADHYQQNTPIGDGPVLLPDNHYLSYQSALSKDPNEKRDHMVLKEFVTAAGITHGMDELYK"}},
  "assay": "FRET response of LuxP BAI-2 binding site mutant biosensors to BAI-2",
  "experimental": "Site-directed mutations were carried out using the QuikChange mutagenesis kit (Stratagene). The perGFP plasmid containing the gene encoding the green fluorescent protein (GFP) is used for creating cyan and yellow variants CFP and YFP, respectively. An L221K mutation is introduced into the gene encoding CFP or YFP to reduce the possible level of intermolecular dimerization. Cloning vector pSP72 (Promega) is used for creating 5′ to 3′ end-to-end gene fusions of PCR fragments containing the genes encoding CFP (5′ KpnI/3′ EagI), V. harveyi LuxP (70 to 1095 bp; 5′ EagI/3′ NotI), and YFP (5′ NotI/3′ PstI), generating plasmid pSP72-CLPY. The CLPY gene fusion is removed using the restriction enzymes KpnI and PstI and subcloned into a pQE-30 bacterial expression vector (Qiagen) containing an N-terminal six-His tag, generating plasmid pQE30-CLPY. LuxP BAI-2 binding site mutants pQE30-M2CLPY (Q77A and S79A) and pQE30-M3CLPY (Q77A, S79A, and W82F) are created using pQE30-CLPY as a template and confirmed by DNA sequence analysis.\nThe YFP or CFP fluorescence response of wild-type and mutant forms of CLPY (1.0 mL, 0.015 mg/mL) to different ligands is measured 5 minutes after addition of the ligand to the protein at room temperature. No time-dependent changes in the CLPY FRET ratio are observed after incubation for 5 minutes. […]",
  "data": [
    {"molecule": "B1", "values": [
      {"measurement": "FRET response to BAI-2 (qualitative)", "setting": "following addition of BAI-2, compared to wild-type CLPY", "result": "insensitive to BAI-2"},
      {"measurement": "FRET response relative to the wild-type biosensor", "setting": "supersaturating BAI-2 (10 μM)", "result": 18, "unit": "%"}
    ]}
  ]
}
